{"source": "patent US20230272117A1", "about": "(published 2023)", "assay_in_all_cases": "FACS cell binding", "key": {"[1]": {"target": "C1.861.hu51"}, "[2]": {"target": "C1.831.hu31"}, "[3]": {"target": "C1.861.hu31"}, "[4]": {"target": "C1.844.hu41"}, "[5]": {"target": "C1.844.hu31"}}, "data": [{"binder": "C6.cC1 (other) MALRGFCSADGSDPLWDWNVTWYTSNPDFTKCFQNTVLVWVPCFYLWACFPFYFLYLSRHDRGYIQMTLLNKTKTALGFLLWIVCWADLFYSFWERSRGIFLAPVFLVSPTLLGITMLLATFLIQLERRKGVQSSGIMLTFWLVALLCALAILRSKIMTALKEDVQVDLFRDMTFYVYFSLVLIQLVLSCFSDRSPLFSETIHDPNPCPESSASFLSRITFWWITGLIVRGYRQPLEGSDLWSLNKEDTSEQVVPVLVKNWKKECAKTRKQPVKVVYSSKDPAQPKDSSKVDANEEVEALIVKSPQKEWNPSLFKVLYKTFGPYFLMSFFFKAIHDLMMFSGPEILKLLINFVNDTKAPDWQGYFYTALLFVAACLQTLVLHQYFHICFVSGMRIKTAVIGAVYRKALVITNAARKSSTVGEIVNLMSVDAQRFMDLATYINMIWSAPLQVILALYLLWRNLGPPILAGVAVMVLMVPVNAVMAMKTKTYQVAHMKSKDNRIKLMNEILNGIKVLKLYAWELAFKDKVLAIRQEELKVLKKSAYLAAVGTFTWVCTPFLVALCTFAVYVTIDKNNVLDAQKAFVSLALFNILRFPLNILPMVISSIVQASVSLKRLRIFLSHEELEPDSIERRPVKDGGDTNSITVRNATFTWARSDPPTLNGITFSIPEGALVAVVGQVGCGKSSLLSALLAEMDKVEGHVALKGSVAYVPQQAWIQNDSLQENILFGCQLEEPYYRSVIQACALLPDLEILPSGDRTEIGEKGVNLSGGQKQRVSLARAVYCNADIYLFDDPLSAVDAHVGKHIFENVIGPKGMLKNKTRILVTHSMSYLPQVDVIIVMSGGKISEMGSYQELLARDGAFAEFLRTYASAEQEQDPEDNGVTGVSGPGKEAKQMENGMLVTDSAGKQLQRQLSSSSSYSGDVSRQHNSTAELQKDGAKKEETWKLMEADKAQTGQVKLSVYWDYMKAIGLFISFLSIFLFICNHVAALASNYWLSLWTDDPIVNGTQEHTKVRLSVYGALGISQGIAVFGYSMAVSIGGILASRCLHVDLLHSILRSPMSFFERTPSGNLVNRFSKELDTVDSMIPEVIKMFMGSLFNVIGACIVILLATPIAAIIIPPLGLIYFFVQRFYVASSRQLKRLESVSRSPVYSHFNETLLGVSVIRAFEEQERFIHQSDLKVDENQKAYYPSIVANRWLAVRLECVGNCIVLFAALFAVISRHSLSAGLVGLSVSYSLQVTTYLNWLVRMSSEMETNIVAVERLKEYSETEKEAPWQIQETAPPSNWPQVGRVEFRNYCLRYREDLDFVLRHINVTINGGEKVGIVGRTGAGKSSLTLGLFRINESAEGEIIIDGINIARIGLHDLRFKITIIPQDPVLFSGSLRMNLDPFSQYSDEEVWTSLELAHLKGFVSALPDKLDHECAEGGENLSVGQRQLVCLARALLRKTKILVLDEATAAVDLETDDLIQSTIRTQFEDCTVLTIAHRLNTIMDYTRVIVLDKGEIQEYGAPSDLLQQRGLFYNMARDAGLV", "values": [{"measurement": "Kd", "setting": "[1]", "result": 125, "unit": "nM"}, {"measurement": "Kd", "setting": "[2]", "result": 1070, "unit": "nM"}, {"measurement": "Kd", "setting": "[3]", "result": 110, "unit": "nM"}, {"measurement": "Kd", "setting": "[4]", "result": 107, "unit": "nM"}, {"measurement": "Kd", "setting": "[5]", "result": 253, "unit": "nM"}]}]}
